Measurements reported in the supplement of paper PMC7877785.
± gives the uncertainty stated by the source.

Experiment: self-splicing fitness, log relative to wild type (ln ratio); higher = more splicing; Tetrahymena group I intron in knt gene, E. coli kanamycin selection, DiMSum; sequences stand for … in CUCUCU…GGAGGGAAAAGUUAUCAGGCAUGCACCUGGUAGCUAGUCUUUAAACCAAUAGAUUGCAUCGGUUUAAAAGGCAAGACCGUCAAAUUGCGGGAAAGGGGUCAACAGCCGUUCAGUACCAAGUCUCAGGGGAAACUUUGAGAUGGCCUUGCAAAGGGUAUGGUAAUAAGCUGACGGACAUGGUCCUAACCACGCAGCCAAGUCCUAAGUCAACAGAUCUUCUGUUGAUAUGGAUGCAGUUCACAGACUAAAUGUCGGUCGGGGAAGAUGUAUUCUUCUCAUAAGAUAUAGUCGGACCUCUCCUUAAUGGGAGCUAGCGGAUGAAGUGAUGCAACACUGGAGCCGCUGGGAACUAAUUUGUAUGCGAAAGUAUAUUGAUUAGUUUUGGAGUACUCGUGGUCG
Outline: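 Six replicate transformations of E. coli BL21(DE3) with a pET-22b(+) library were grown overnight at 37°C or 30°C. The library randomised all eight P1ex-region intron nucleotides, the intron lying in the knt kanamycin-resistance gene, and plates were LB agar with or without 25 μg/mL kanamycin plus 100 μg/mL carbenicillin, 50 μM IPTG and 0.2% rhamnose. Pooled colonies were amplicon-sequenced on an Illumina HiSeq 2500, and fitness is the DiMSum error-weighted combination of wild-type-normalised replicate fold changes, kanamycin versus none.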

Sequence	self-splicing fitness (ln) (30 °C)	self-splicing fitness (ln) (37 °C)
GCCAAGCAAUAUUACGAGCG	-2.34 ± 0.12	-1.08 ± 0.13
UGGAAGCAAUAUUACGUACC	-1.73 ± 0.19	-0.601 ± 0.23
UAAGAGCAAUAUUACGAAUA	-3.27 ± 0.26	-1.32 ± 0.19
CGCUAGCAAUAUUACGGUGA	-2.28 ± 0.14	-0.996 ± 0.11
ACACAGCAAUAUUACGCCUU	-1.62 ± 0.076	-0.434 ± 0.091
UCCAAGCAAUAUUACGAACG	-2.64 ± 0.15	-1.62 ± 0.23
AUAAAGCAAUAUUACGCCGG	-0.516 ± 0.13	-0.807 ± 0.17
AGCUAGCAAUAUUACGAAAA	-3.04 ± 0.38	-1.66 ± 0.23
ACCAAGCAAUAUUACGUGAU	-2.46 ± 0.072	-0.924 ± 0.074
CAUCAGCAAUAUUACGGCAA	-3.37 ± 0.21	-2.1 ± 0.2
UCGCAGCAAUAUUACGUCCA	-0.754 ± 0.086	-0.0511 ± 0.094
AGUUAGCAAUAUUACGACUU	-1.32 ± 0.078	-0.587 ± 0.12
CCACAGCAAUAUUACGAUGA	-1.9 ± 0.11	-1.77 ± 0.12
AGCCAGCAAUAUUACGCUCU	-1.94 ± 0.1	-0.912 ± 0.13
AUGAAGCAAUAUUACGGAUU	-1.08 ± 0.078	-0.689 ± 0.1
UCUGAGCAAUAUUACGCUAA	-3.49 ± 0.34	–
UGUUAGCAAUAUUACGGCCG	0.71 ± 0.11	0.567 ± 0.17
UGGUAGCAAUAUUACGUGAG	-1.05 ± 0.092	0.0891 ± 0.11
GGAGAGCAAUAUUACGAGAU	-2.5 ± 0.36	-2.14 ± 0.34
CUACAGCAAUAUUACGAUUG	-0.678 ± 0.055	-0.0365 ± 0.078
AGGGAGCAAUAUUACGAGUG	-3.39 ± 0.36	-2.37 ± 0.3
CUGUAGCAAUAUUACGUACA	-3.41 ± 0.27	-1.65 ± 0.18
CAAAAGCAAUAUUACGUCGA	-2.16 ± 0.086	-1.06 ± 0.084
UGUUAGCAAUAUUACGCAAA	-0.989 ± 0.22	-0.62 ± 0.32
UGUCAGCAAUAUUACGGUGG	-2.14 ± 0.099	-1.32 ± 0.097

Sequence	self-splicing fitness (ln) (30 °C)	self-splicing fitness (ln) (37 °C)
CGGCAGCAAUAUUACGGUAC	-3.61 ± 0.49	-2.9 ± 0.23
AGGAAGCAAUAUUACGCUAC	-3.48 ± 0.41	-2.99 ± 0.47
AAUUAGCAAUAUUACGGGGC	-2.38 ± 0.21	–
GAAGAGCAAUAUUACGCGAA	-3.32 ± 0.23	-2.94 ± 0.38
AAACAGCAAUAUUACGUGAU	-2.18 ± 0.053	-1.13 ± 0.072
CUCUAGCAAUAUUACGCAGC	-3.2 ± 0.25	–
AGAUAGCAAUAUUACGCUUA	-0.901 ± 0.15	-1.08 ± 0.13
CAGCAGCAAUAUUACGGGCG	0.0476 ± 0.064	0.363 ± 0.083
GGUCAGCAAUAUUACGAUUU	0.377 ± 0.062	0.21 ± 0.088
CAGAAGCAAUAUUACGAUCG	-0.236 ± 0.078	0.167 ± 0.1
CCACAGCAAUAUUACGACAA	-3.09 ± 0.22	-1.91 ± 0.17
AAGGAGCAAUAUUACGCAAU	-2.67 ± 0.17	-1.71 ± 0.19
CGAUAGCAAUAUUACGCACU	-1.12 ± 0.14	0.174 ± 0.14
GACUAGCAAUAUUACGAUAG	-2.95 ± 0.16	-1.17 ± 0.12
UCCUAGCAAUAUUACGGCCU	-2.37 ± 0.34	-2.29 ± 0.37
UAGUAGCAAUAUUACGGCUC	-1.01 ± 0.098	0.206 ± 0.14
CCAUAGCAAUAUUACGACUG	-0.667 ± 0.071	-0.0816 ± 0.087
AUACAGCAAUAUUACGAGAG	-3.39 ± 0.14	-2.1 ± 0.088
AAUGAGCAAUAUUACGGCGC	-1.82 ± 0.089	-1.09 ± 0.11
CCAAAGCAAUAUUACGUAUA	-4.79 ± 0.32	-2.3 ± 0.14
CCUUAGCAAUAUUACGGUCC	-3.5 ± 0.46	-3.04 ± 0.35
GAUAAGCAAUAUUACGGGCU	-1.95 ± 0.11	-1.91 ± 0.16
GUUAAGCAAUAUUACGCUGU	-2.62 ± 0.21	-1.78 ± 0.17
UCGCAGCAAUAUUACGGCUG	-3.46 ± 0.24	-2.45 ± 0.32
GCGUAGCAAUAUUACGGUGG	-4.1 ± 0.31	-3.39 ± 0.39

Sequence	self-splicing fitness (ln) (30 °C)	self-splicing fitness (ln) (37 °C)
GCGCAGCAAUAUUACGGGCC	-2.96 ± 0.22	-3.25 ± 0.27
CAGAAGCAAUAUUACGGUCA	-1.54 ± 0.13	-1.15 ± 0.097
AACGAGCAAUAUUACGAGCU	-4.74 ± 0.36	-3.22 ± 0.27
UAACAGCAAUAUUACGAGAU	-4.15 ± 0.33	-2.9 ± 0.2
GGUGAGCAAUAUUACGGGCU	-2.81 ± 0.19	-2.67 ± 0.44
CGGGAGCAAUAUUACGCAGA	-3.67 ± 0.48	-2.01 ± 0.29
UGACAGCAAUAUUACGGACG	0.0374 ± 0.078	0.415 ± 0.11
GAACAGCAAUAUUACGUGCU	-2.89 ± 0.14	-1.88 ± 0.14
UUGAAGCAAUAUUACGGGUC	-3.77 ± 0.25	-1.71 ± 0.25
CCGGAGCAAUAUUACGUUUC	-2.4 ± 0.31	-2.74 ± 0.48
UAAGAGCAAUAUUACGCUAU	-3.95 ± 0.32	-2.64 ± 0.24
GUCAAGCAAUAUUACGGAUG	-2.64 ± 0.12	-0.795 ± 0.11
UUGUAGCAAUAUUACGCUCC	-2.12 ± 0.43	–
UCAAAGCAAUAUUACGCAUA	-2.68 ± 0.17	-1.62 ± 0.16
CGCGAGCAAUAUUACGCUUC	–	-1.44 ± 0.45
GUUGAGCAAUAUUACGCAGA	-2.67 ± 0.34	-3.6 ± 0.46
UGUGAGCAAUAUUACGGGCU	-0.671 ± 0.38	-1.48 ± 0.46
AACGAGCAAUAUUACGGCUU	-0.938 ± 0.076	-0.225 ± 0.1
UCCUAGCAAUAUUACGAUGC	-2.85 ± 0.21	-2.7 ± 0.29
GAAUAGCAAUAUUACGCCAG	-2.58 ± 0.24	-1.69 ± 0.3
AACGAGCAAUAUUACGAUAA	-3.76 ± 0.2	-2.94 ± 0.21
UUAAAGCAAUAUUACGCUGG	-0.4 ± 0.11	-0.152 ± 0.12
UAGUAGCAAUAUUACGACGG	-1.21 ± 0.16	-0.306 ± 0.21
GGCGAGCAAUAUUACGACAA	–	-1.05 ± 0.34
AUUGAGCAAUAUUACGGGUA	–	-2.06 ± 0.32

Sequence	self-splicing fitness (ln) (30 °C)	self-splicing fitness (ln) (37 °C)
CGUGAGCAAUAUUACGACCC	-1.76 ± 0.23	-0.787 ± 0.16
CGAUAGCAAUAUUACGAGCC	-2.23 ± 0.28	-2.61 ± 0.44
UAUGAGCAAUAUUACGGAUC	-3.84 ± 0.44	-2.19 ± 0.41
GCAAAGCAAUAUUACGGCUG	-2.43 ± 0.14	-1.24 ± 0.17
UGCGAGCAAUAUUACGAAAA	-1.24 ± 0.27	–
ACUGAGCAAUAUUACGGUUA	-2.56 ± 0.21	-1.9 ± 0.17
UAGCAGCAAUAUUACGGUUG	-1.17 ± 0.092	-0.442 ± 0.12
GCAUAGCAAUAUUACGCCAG	-2.88 ± 0.42	-2.94 ± 0.48
ACGAAGCAAUAUUACGGUUC	-4.09 ± 0.23	-0.86 ± 0.15
UGGUAGCAAUAUUACGGGAC	–	-2.89 ± 0.27
AUAUAGCAAUAUUACGAACG	-1.56 ± 0.18	-0.154 ± 0.2
ACGCAGCAAUAUUACGAUUG	-2.96 ± 0.18	-1.82 ± 0.17
GCACAGCAAUAUUACGGUGA	-0.308 ± 0.07	-0.455 ± 0.079
AGUAAGCAAUAUUACGGAGU	-2.22 ± 0.18	-2.37 ± 0.39
UGGUAGCAAUAUUACGGCCG	-1.62 ± 0.29	-0.342 ± 0.32
UAAGAGCAAUAUUACGGUUA	-1.12 ± 0.12	-0.602 ± 0.1
CCCGAGCAAUAUUACGGGGU	-2.92 ± 0.16	-2.93 ± 0.17
CGCUAGCAAUAUUACGUAGU	-3.48 ± 0.13	-1.34 ± 0.12
AGCUAGCAAUAUUACGUAUG	-2.52 ± 0.15	-0.829 ± 0.12
AAGGAGCAAUAUUACGUAAA	-2.81 ± 0.32	-0.663 ± 0.24
GAACAGCAAUAUUACGUCAG	-2.51 ± 0.21	-3.2 ± 0.36
CUGCAGCAAUAUUACGCGUU	-3.32 ± 0.12	-2.1 ± 0.16
UUACAGCAAUAUUACGCAGG	-1.79 ± 0.14	-1.44 ± 0.14
